According to publication PMC11079029, “Intramolecular autoinhibition regulates the selectivity of PRPF40A tandem WW domains for proline-rich motifs” (Nature Communications, 2024):

B1: SF1 Pro ABCD: GB1-tagged SF1 construct, residues 410–639 (protein)
chain: GHPMQHNPNGPPPPWMQPPPPPMNQGPHPPGHHGPPPMDQYLGSTPVGSGVYRLHQGKGMMPPPPMGMMPPPPPPPSGQPPPPPSGPLPPWQQQQQQPPPPPPPSSSMASSTPLPWQQNTTTTTTSAGTGSIPPWQQQQAAAAASPGAPQMQGNPTMVPLPPGVQPPLPPGAPPPPPPPPPGSAGMMYAPPPPPPPPMDPSNFVTMMGMGVAGMPPFGMPPAPPPPPPQN
modifications: left off: His6, N-terminal, state not stated | GB1, N-terminal, kept
B2: SF1 Pro BCD: GB1-tagged SF1 construct, residues 468–639 (protein)
chain: GMMPPPPMGMMPPPPPPPSGQPPPPPSGPLPPWQQQQQQPPPPPPPSSSMASSTPLPWQQNTTTTTTSAGTGSIPPWQQQQAAAAASPGAPQMQGNPTMVPLPPGVQPPLPPGAPPPPPPPPPGSAGMMYAPPPPPPPPMDPSNFVTMMGMGVAGMPPFGMPPAPPPPPPQN
modifications: left off: His6, N-terminal, state not stated | GB1, N-terminal, kept
B3: SF3A1 C-ter Pro: GB1-tagged SF3A1 construct, residues 552–683 (protein)
chain: EIPQQPPPPSSATNIPSSAPPITSVPRPPTMPPPVRTTVVSAVPVMPRPPMASVVRLPPGSVIAPMPPIIHAPRINVVPMPPSAPPIMAPRPPPMIVPTAFVPAPPVAPVPAPAPMPPVHPPPPMEDEPTSK
modifications: left off: His6, N-terminal, state not stated | GB1, N-terminal, kept
B4: SF1 Pro B: GB1-tagged SF1 construct, residues 468–539 (protein)
chain: GMMPPPPMGMMPPPPPPPSGQPPPPPSGPLPPWQQQQQQPPPPPPPSSSMASSTPLPWQQNTTTTTTSAGTG
modifications: left off: His6, N-terminal, state not stated | GB1, N-terminal, kept
B5: SF1 Pro BC: GB1-tagged SF1 construct, residues 468–594 (protein)
chain: GMMPPPPMGMMPPPPPPPSGQPPPPPSGPLPPWQQQQQQPPPPPPPSSSMASSTPLPWQQNTTTTTTSAGTGSIPPWQQQQAAAAASPGAPQMQGNPTMVPLPPGVQPPLPPGAPPPPPPPPPGSAG
modifications: left off: His6, N-terminal, state not stated | GB1, N-terminal, kept
B6: SF1 Pro CD: GB1-tagged SF1 construct, residues 539–639 (protein)
chain: GSIPPWQQQQAAAAASPGAPQMQGNPTMVPLPPGVQPPLPPGAPPPPPPPPPGSAGMMYAPPPPPPPPMDPSNFVTMMGMGVAGMPPFGMPPAPPPPPPQN
modifications: left off: His6, N-terminal, state not stated | GB1, N-terminal, kept

Target: T1, PRPF40A WW12 (tandem WW domains, residues 141–236) (Homo sapiens, UniProt O75400)
T1 construct: WW12 141–236, WW12long 141–248, and N-ext-WW12 56–236; 6xHis-TEV site (N, cleaved yes); made in house; host or cells: Escherichia coli BL21(DE3)
T1 sequence (O75400 141-236): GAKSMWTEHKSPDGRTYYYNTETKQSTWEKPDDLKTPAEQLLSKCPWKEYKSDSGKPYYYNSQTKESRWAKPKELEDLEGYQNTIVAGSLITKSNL
Test: ITC of PRPF40A WW12 with GB1-tagged proline-rich peptides and constructs
Format: binding
Details: ITC binding enthalpy, as E4
Description: PRPF40A isoform 1 sequences (N-ter 1–310, WW12short 141–223, WW12 141–236, WW12long 141–248, and N-ext-WW12 56–236) were amplified from a purchased DNA fragment (IDT) and cloned using NcoI and KpnI restriction sites into a pETM11 vector encoding 6xHis and TEV cleavage site as a N-terminal tag. SF1 (Pro A 410–468, Pro B 468–539, Pro C 539–594, Pro D 594–639, Pro BC 468–594, Pro CD 539–639, Pro BCD 468–639 and Pro ABCD 410–639) and SF3A1 (Middle Pro 364–413 and C-ter Pro 552–683) constructs were prepared in a similar manner using a pET24 vector with a 6xHis, GB1 and TEV cleavage site as N-terminal fusion cassette. 16-mer SF1 constructs (Table 1) and polyproline peptides (P6, P8, P10, P13, P16, P19, P22, P25, and P29) were cloned in the same pET24 vector with GB1 tag by direct ligation of purchased oligonucleotides (Eurofins). All peptide sequences contained N and C-terminal common residues to avoid boundary effects on binding: TEVsite-GAMSGS-peptide-SGSN. Mutants of PRPF40A WW12 and N-ext-WW12 constructs were prepared by site-directed mutagenesis. The truncated version of PRPF40A WW12 (141-217) was a gift from Dr. María Macías (IRB, Spain). All used oligonucleotides were purchased from Eurofins Genomics and are shown in Supplementary Table 6.
Resuspended cell pellets in 20 mM Tris pH 8.0, 500 mM NaCl, 10 mM imidazole, 0.5 mM TCEP, and protease inhibitors mix (SERVA) were lysed by cell disruption in a French press. Clear lysates, after centrifugation (at 18,000 g) and filtering, were loaded into Ni-NTA resin. The resin was then washed with 20 mM imidazole containing buffer, and the desired protein was eluted with 500 mM imidazole. PRPF40A constructs were then subjected to TEV protease treatment (homemade at a final concentration of ≈50 μg/ml), dialyzed overnight at 4 °C against an imidazole-free buffer, and then loaded again to Ni-NTA resin; desired digested proteins were obtained in the flow-through and wash fractions while uncleaved protein, TEV protease, and impurities remained bound to the resin. Cleaved PRPF40A proteins and GB1-tagged SF1, SF3A1, and polyproline constructs were further purified by size-exclusion chromatography on a HiLoad 16/60 Superdex 75 column (GE Healthcare) equilibrated with 20 mM sodium phosphate, pH 6.5, 100 mM NaCl and 1 mM DTT buffer. For the purification of PRPF40A WW12 in complex with SF1 peptide, cell pellets of recombinant expression for both proteins were mixed and processed together following the Ni-NTA—TEV digestion—reverse Ni-NTA—SEC-75 protocol; where the complex remained bound in a 1:1 stoichiometry throughout the whole purification (corroborated by NMR). Molecular weight of each sample was confirmed by mass spectrometry, purity was checked by PAGE-SDS, and protein concentrations were determined from the aromatic contribution to the UV absorbance spectra at 280 nm.
Experiments were conducted on a MicroCAl PEAQ-ITC (Malvern Instruments, UK) at 25 °C in 20 mM sodium phosphate pH 6.5 and 100 mM NaCl. PRPF40A was titrated into N-terminal GB1 tagged SF1 or polyproline constructs and vice versa with similar results. Protein concentrations in the cell were around 20–40 μM, while in the syringe ranged between 200 and 500 μM. Experiments were performed at least in duplicate with injections of 1.5 μL (0.4 μL for first point) separated by 150 s delays to recover thermal power baseline and continuous stirring in the cell (750 rpm) for correct mixing. The reference cell was filled with water in all experiments. Data were processed by removing the blank experiment (using digested GB1 fusion protein) and adjusted to one-site binding model with Malvern PEAQ-ITC Analysis software (Malvern Instruments, UK).

In order of falling “DH” value:
1. B4  -17.3 ± 3.27 kcal/mol
2. B5  -28.99 ± 1.65 kcal/mol
3. B6  -46.2 ± 3.11 kcal/mol
4. B2  -65.49 ± 8.6 kcal/mol
5. B1  -67.04 ± 9.68 kcal/mol
6. B3  -68.83 ± 18.8 kcal/mol

Same assay, conditions: source data of Fig. 4C,D; ITC as E4; individual value 1; read-out: Kd (mM), Individual values

In order of falling Kd:
1. B3  0.0238 mM
2. B1  0.00541 mM
3. B5  0.00363 mM
4. B2  0.00293 mM
5. B6  0.00283 mM

Same assay, conditions: source data of Fig. 4C,D; ITC as E4; individual value 2; read-out: Kd (mM), Individual values

In order of rising Kd:
1. B6  0.00432 mM
2. B2  0.00436 mM
3. B1  0.0044 mM
4. B5  0.00776 mM
5. B3  0.0148 mM

Same assay, conditions: source data of Fig. 4C; ITC as E4; individual value 3; read-out: Kd (mM), Individual values

In order of falling Kd:
1. B5  0.00911 mM
2. B6  0.00426 mM
